Assay results from US20230167158A1.

Biological target: human CD3 on activated lymphocytes (human)
Experiment: cell-based or functional assay

Row | Substance | GFP positive cells after transduction of activated lymphocytes (GFP vector) [%]
1 | OKT3-CD8a-VSVG | > 50
2 | OKT3-VSVG | 7
